# From patent US20190309018A1
# Where two headings read alike, the source gives them in different places. Square brackets hold non-standard residues; d marks the D form. Ends that are not written are not given here. Cya = N[C@@H](CS(=O)(=O)O)C(=O)O
# Columns and labels:
# [1] = biological target: integrins (on human umbilical vein endothelial cells, HUVEC) (human); test: cell-based or functional assay
# [2] = biological target: integrins (on human umbilical vein endothelial cells, HUVEC) (human); test: cell-based or functional assay; remark: listed apart in the source
inhibition of HUVEC wound healing (scratch assay on fibronectin coated surface; peptide 1 mM) after 24 hours [1] [%],"inhibition of cell adhesion in a model of wound healing using HUVEC, 12 hours [1] [%]",inhibition of HUVEC wound healing (scratch assay on fibronectin coated surface; peptide 10 mM) after 24 hours [2] [%],"inhibition of cell adhesion in a model of wound healing using HUVEC, 12 hours [2] [%]",Molecule
45,40,–,–,Cyclic RGD (RGD-based peptide; N-methylated cyclic-RGDf-N(Me)V; Cilengitide)
–,–,70,74,GRG[Cya]TP-OH [Glycinyl-Arginyl-Glycinyl-Cysteic-Threonyl-Proline-COOH (GRG Cysteic Acid TP)]
